# Reference: patent US6376240
# What was measured:
# [1] = system: recombinant His6-RFLAT-1 (C-terminal portion of RFLAT-1, amino acids 59-288)
# [2] = molecular target: RFLAT-1 full length (homo sapien) (UniProt Q9Y2Y9); assay: cell_activity; conditions: Jurkat T cells
# Chain of RFLAT-1 full length (homo sapien) (Q9Y2Y9 other isoform, or with tags, fused parts or gaps): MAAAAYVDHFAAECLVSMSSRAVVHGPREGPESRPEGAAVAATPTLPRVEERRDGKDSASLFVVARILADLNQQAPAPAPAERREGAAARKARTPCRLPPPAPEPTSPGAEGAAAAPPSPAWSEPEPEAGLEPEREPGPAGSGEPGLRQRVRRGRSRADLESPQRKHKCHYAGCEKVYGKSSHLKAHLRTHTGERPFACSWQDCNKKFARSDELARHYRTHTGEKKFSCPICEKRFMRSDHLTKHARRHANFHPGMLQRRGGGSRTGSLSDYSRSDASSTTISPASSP
# Chain of recombinant His6-RFLAT-1 (C-terminal portion of RFLAT-1, amino acids 59-288) (chain, as listed by the source): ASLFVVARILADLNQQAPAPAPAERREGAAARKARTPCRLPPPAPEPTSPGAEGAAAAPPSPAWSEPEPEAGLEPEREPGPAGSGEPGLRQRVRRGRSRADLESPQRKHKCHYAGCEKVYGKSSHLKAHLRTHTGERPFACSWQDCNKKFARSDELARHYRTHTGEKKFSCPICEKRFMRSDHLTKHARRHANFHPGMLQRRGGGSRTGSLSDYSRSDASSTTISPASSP
substance,measurement,setting,value
NILK,phosphorylation of recombinant RFLAT-1 by immunoprecipitated kinase,[1],the immunoprecipitated NILK from activated PBLs phosphorylates recombinant RFLAT-1
RANTES promoter pGL2-R-luciferase,activity (fold induction),[2]; about 5 fold in NIH3T3,10
three A/B sites luciferase reporter,activity (fold induction),[2]; similar degree of induction,10
